Source: US20240173377A1 (EPIVAX, published 2024)

Tests used:
Assay in all cases: competition HLA binding assay: soluble HLA, labeled control peptide, capture on anti-human DR antibody, time-resolved fluorescence
HLA DRB1*0301 = target: T1, HLA DRB1*0301 (human)
T1 construct: Described only as a soluble HLA molecule; also called soluble HLA molecule

HLA DRB1*1101 = target: T2, HLA DRB1*1101 (human)
T2 construct: Described only as a soluble HLA molecule; also called soluble HLA molecule

HLA DRB1*0701 = target: T3, HLA DRB1*0701 (human)
T3 construct: Described only as a soluble HLA molecule; also called soluble HLA molecule

HLA DRB1*0101 = target: T4, HLA DRB1*0101 (human)
T4 construct: Described only as a soluble HLA molecule; also called soluble HLA molecule

HLA DRB1*0401 = target: T5, HLA DRB1*0401 (human)
T5 construct: Described only as a soluble HLA molecule; also called soluble HLA molecule

HLA DRB1*1301 = target: T6, HLA DRB1*1301 (human)
T6 construct: Described only as a soluble HLA molecule; also called soluble HLA molecule

Measured: binding result

B1: SEQ ID NO 114 (peptide)
peptide: EEQYNSTYTVVSVLTVLHQD
notes: L-amino acid Tregitope, assayed alongside its retro-inverso counterpart
binds: all assays above

B2: SEQ ID NO 115 (peptide)
peptide: ILTIHFTGHSFIYGK
notes: as for B1
binds: all assays above
